Molecular target: T1, Orai3-L2 (aa 111–161, mutation C118G) (human, UniProt Q9BRQ5 111-161, C118G, conjugated to amino-functionalized AFM cantilever tips via a flexible NHS-PEG18-acetal cross-linker)
T1 construct: human Orai3 loop2, aa 111–161; also called Orai3-loop2; source: synthetic peptide (custom-synthesized, >95% purity, Synpeptide)
Assay: AFM single-molecule force spectroscopy; loop2 peptide tethered to the cantilever tip via a PEG linker, Orai1-NT peptide immobilised on silicon chips; room temperature, HBS buffer (150 mM NaCl, 5 mM Hepes); pulling velocity 50-8000 nm/s; koff from the Bell-Evans single energy barrier model
Conditions: both partners purified

binding result: binds
B1: Orai1-NT 70–91 (peptide)
peptide: SMQALSWRKLYLSRAKLKASSRC
modifications: added C-terminal cysteine for site-specific coupling; immobilized on silicon chips via NHS-PEG27-maleimide linkers
notes: human Orai1 N terminus, aa 70–91; added C-terminal cysteine for site-specific coupling (told in words); also called Orai1 70–91; non-truncated Orai1 NT; source: synthetic peptide (custom-synthesized, >95% purity, DgPeptides)

Reference: paper PMC5787804, “Communication between N terminus and loop2 tunes Orai activation” (The Journal of Biological Chemistry, 2017)
